# Data reported in patent US20240269312A1, “ANTIBODY DRUG CONJUGATE, AND PREPARATION METHOD THEREFOR AND USE THEREOF” (SICHUAN KELUN-BIOTECH BIOPHARMACEUTICAL CO., LTD., priority 2021, published 2024).
# Residue numbers refer to the chain shown, from its start.
# B1: Anti-human ROR1 antibody D10 (antibody, from another filing, V domains shown)
# VH: QVQLKESGPGLVAPSQTLSITCTVSGFSLTSYGVHWVRQPPGKGLEWLGVIWAGGFTNYNSALKSRLSISKDNSKSQVLLKMTSLQTDDTAMYYCARRGSSYSMDYWGQGTSVIVSS
# VL: EIVLSQSPAITAASLGQKVTITCSASSNVSYIHWYQQRSGTSPRPWIYEISKLASGVPVRFSGSGSGTSYSLTISSMEAEDAAIYYCQQWNYPLITFGSGTKLEIQ
# B2: Anti-ROR1 antibody UC961 (antibody, V domains shown)
# VH: QVQLQESGPGLVKPSQTLSLTCTVSGYAFTAYNIHWVRQAPGQGLEWMGSFDPYDGGSSYNQKFKDRLTISKDTSKNQVVLTMTNMDPVDTATYYCARGWYYFDYWGHGTLVTVSS
# VL: DIVMTQTPLSLPVTPGEPASISCRASKSISKYLAWYQQKPGQAPRLLIYSGSTLQSGIPPRFSGSGYGTDFTLTINNIESEDAAYYFCQQHDESPYTFGEGTKVEIK
# B3: 19F6_Hu35V1 (antibody, human IgG1, kappa, V domains shown)
# VH: QVQLQESGPGLVKPSQTLSLTCTVSGYSITSDYAWNWIRQFPGKGLEWIGYISYSGSIRYNPSLKSRVTISRDTSKNQFSLKLSSVTAADTAVYYCARGEITYYFDYWGQGTLVTVSS
# VL: ETTLTQSPAFMSATPGDKVTISCKASTSIDDDMNWYQQKPGEPPKLIISEGNTLRPGIPPRFSSSGYGTDFTFTINKIKSEDAATYYCLQSNDLPLTFGQGTKLEIKR
# notes: Humanized anti-human ROR1 antibody, human IgG1/kappa, expressed in Expi293F cells and purified with Protein A
# B4: 19F6_Hu35V1: humanized anti-ROR1 antibody; VH SEQ ID NO:1, VL SEQ ID NO:2, human IgG1 heavy and kappa light chain constant regions (antibody, V domains shown)
# VH: B3 VH
# VL: ETTLTQSPAFMSATPGDKVTISCKASTSIDDDMNWYQQKPGEPPKLIISEGNTLRPGIPPRFSSSGYGTDFTFTINKIKSEDAATYYCLQSNDLPLTFGQGTKLEIK
# modifications: human IgG1 and kappa constant regions; 19F6_Hu35V1 VH; 19F6_Hu35V1 VL
# B5: 3D8_HuC24: humanized anti-ROR1 antibody; VH SEQ ID NO:9, VL SEQ ID NO:10, human IgG1 heavy and kappa light chain constant regions (antibody, V domains shown)
# VH: EVQLVESGGGLVQPGGSLRLSCAASGFTFSSYAMSWVRQAPGKGLEWVASINSGGSTYYPDSVKGRFTISRDNAKNSLYLQMNSLRAEDTAVYYCARVNYYGYGDYAMDYWGQGTLVTVSS
# VL: DIQMTQSPSSLSASVGDRVTITCQASQDISNYLTWFQQKPGKSPKTLIHRANRLVTGVPSRFSGSGSGTDFTFTISSLQPEDIATYYCLQYDEFPYTFGGGTKVEIK
# modifications: human IgG1 and kappa constant regions; 3D8_HuC24 VH; 3D8_HuC24 VL
# B6: 38F8_Hu57: humanized anti-ROR1 antibody; VH SEQ ID NO:17, VL SEQ ID NO:18, human IgG1 heavy and kappa light chain constant regions (antibody, V domains shown)
# VH: EVQLVESGGGLVQPGGSLRLSCAASGFTFSNYAMSWVRQAPEKRLEWVASISSGGPTYYPDSVKGRFTVSRDNSKNTLYLQMNSLRAEDTAVYYCARGYRYDVNWYFDVWGAGTMVTVSS
# VL: B5 VL with F71Y, T85I
# modifications: human IgG1 and kappa constant regions; 38F8_Hu57 VH; 38F8_Hu57 VL
# Columns and labels:
# [1] = target: human ROR1 (on the cell surface) (human) (UniProt Q01973); assay: flow cytometry, Ba/F3-ROR1 cells, D10 as detection antibody
# [2] = target: T1, human ROR1 (on the cell surface) (human, UniProt Q01973 30-937); assay: flow cytometry, HT-29 cells
# T1 construct: whole, on cells; Ba/F3 cells carry it by lentiviral transduction; also called Ba/F3-ROR1; ROR1 on the surface of human cells
# Protocol: (§1) The affinities of 19F6_Hu35V1, 3D8_HuC24 and 38F8_Hu57 to ROR1 on the surface of human cells were determined by flow cytometry.
# (§2) In addition to Ba/F3-ROR1 overexpression cells, human mantle cell lymphoma cell line Jeko-1 (Nanjing Cobioer Biosciences), human colon cancer cell line HT-29 (the Cell Bank of the Chinese Academy of Sciences), human lung cancer cell line A549 (the Cell Bank of the China Academy of Sciences) were also used for flow cytometry analysis. Anti-ROR1 antibody UC961 (the VH and VL of antibody UC961 were SEQ ID NO: 5 and 6 disclosed in WO2018237335A1, respectively) and anti-TNP antibody were used as positive control and negative control, respectively. Ba/F3-ROR1, Jeko-1, HT-29 and A549 cells were incubated with different concentration gradients of the purified humanized antibodies on ice for 30 minutes, respectively, washed with flow buffer (PBS+2% FBS) twice, then incubated with goat anti-human fluorescent secondary antibody (Jackson ImmunoResearch) on ice for 30 minutes, and finally loaded on the machine for detection.
# [3] = target: T1, human ROR1 (on the cell surface); assay: flow cytometry, A549 cells
# Protocol: as §1, §2
# [4] = target: T1, human ROR1 (on the cell surface); assay: flow cytometry, Ba/F3-ROR1 cells
# Protocol: as §1, §2
# [5] = target: T1, human ROR1 (on the cell surface); assay: flow cytometry, HT-29 cells; remark: listed apart in the source
# Protocol: as §1, §2
# [6] = target: T1, human ROR1 (on the cell surface); assay: flow cytometry, Jeko-1 cells
# [7] = target: T1, human ROR1 (on the cell surface); assay: flow cytometry, A549 cells; remark: listed apart in the source
# Protocol: as §1, §2
# [8] = target: T1, human ROR1 (on the cell surface); assay: flow cytometry, Ba/F3-ROR1 cells; remark: listed apart in the source
# Protocol: as §1, §2
# [9] = target: T1, human ROR1 (on the cell surface); assay: flow cytometry, A549 cells; remark: listed apart in the source
# Protocol: as §1, §2
# human ROR1 ECD protein [10] = target: T2, human ROR1 ECD protein (human, UniProt Q01973 30-406); assay: BLI (Octet ForteBio), antibody on AHC probe, ROR1 ECD in solution, 1:1 model; average of three determinations
# T2 construct: extracellular domain; also called human ROR ECD protein
# [11] = target: T1, human ROR1 (on the cell surface); assay: flow cytometry, Jeko-1 cells; remark: listed apart in the source
# Protocol: as §1, §2
# [12] = target: T1, human ROR1 (on the cell surface); assay: flow cytometry, Jeko-1 cells; remark: listed apart in the source
# Protocol: as §1, §2
# [13] = target: T1, human ROR1 (on the cell surface); assay: flow cytometry, HT-29 cells; remark: listed apart in the source
# Protocol: as §1, §2
# [14] = target: T1, human ROR1 (on the cell surface); assay: flow cytometry, Ba/F3-ROR1 cells; remark: listed apart in the source
# Protocol: as §1, §2
# human ROR1 ECD protein [15] = target: T2, human ROR1 ECD protein; assay: BLI (Octet ForteBio), antibody on AHC probe, ROR1 ECD in solution
# Protocol: The dynamic affinities of 19F6_Hu35V1, 3D8_HuC24, 38F8_Hu57 and the positive control PGP-1501 antibody UC961 to human ROR1 ECD protein were determined by Octet ForteBio method.
# human ROR1 ECD protein [16] = target: human ROR1 ECD protein (Homo sapiens, UniProt Q01973); assay: Dynamic affinity determination by Octet ForteBio; format: binding; conditions: for kdis / kon: 1:1 kinetic binding model, UC961 value is an average of three determinations
# Protocol: The dynamic affinities of 19F6_Hu35V1, 3D8_HuC24, 38F8_Hu57 and the positive control PGP-1501 antibody UC961 to human ROR1 ECD protein were determined by Octet ForteBio method. The specific experimental steps were as follows: the anti-human IgG Fc AHC probe (ForteBio) was first bound to the antibody to be tested to a response signal value of 0.8-1.2 nm, and the dynamic affinity was measured by immersing the antibody-coated probe into wells containing human ROR ECD protein at different concentrations (16, 8, 4, 2, 1, 0.5, 0.25, and 0 μg/mL), the binding was conducted for 2-4 minutes, followed by dissociation for 4-6 minutes, 1:1 kinetic binding model was used for all fitting analysis.
# T1 sequence (Q01973 30-937): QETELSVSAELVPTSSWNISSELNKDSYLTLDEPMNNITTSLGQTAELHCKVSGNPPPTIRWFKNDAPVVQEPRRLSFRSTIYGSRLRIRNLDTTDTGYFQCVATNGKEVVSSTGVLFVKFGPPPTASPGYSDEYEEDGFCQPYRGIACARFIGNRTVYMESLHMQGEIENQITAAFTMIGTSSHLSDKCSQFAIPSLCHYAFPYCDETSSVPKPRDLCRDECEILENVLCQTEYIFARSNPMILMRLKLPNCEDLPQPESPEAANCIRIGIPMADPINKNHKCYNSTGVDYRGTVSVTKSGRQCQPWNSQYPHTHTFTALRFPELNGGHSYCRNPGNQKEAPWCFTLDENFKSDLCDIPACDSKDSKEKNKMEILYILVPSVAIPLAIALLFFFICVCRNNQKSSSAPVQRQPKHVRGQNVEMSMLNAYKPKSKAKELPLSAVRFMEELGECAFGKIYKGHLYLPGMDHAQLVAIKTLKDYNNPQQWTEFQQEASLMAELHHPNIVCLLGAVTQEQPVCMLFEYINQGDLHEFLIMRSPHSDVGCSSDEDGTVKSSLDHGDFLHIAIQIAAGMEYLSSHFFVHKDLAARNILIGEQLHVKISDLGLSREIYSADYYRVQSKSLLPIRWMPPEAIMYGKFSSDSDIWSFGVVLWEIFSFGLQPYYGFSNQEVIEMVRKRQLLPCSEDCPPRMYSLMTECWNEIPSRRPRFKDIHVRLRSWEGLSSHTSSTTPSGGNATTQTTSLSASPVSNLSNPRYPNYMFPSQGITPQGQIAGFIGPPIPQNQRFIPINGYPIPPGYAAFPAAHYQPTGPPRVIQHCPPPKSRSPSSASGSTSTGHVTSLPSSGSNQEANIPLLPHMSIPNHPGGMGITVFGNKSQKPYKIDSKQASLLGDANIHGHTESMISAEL
# Chain of human ROR1 ECD protein (Homo sapiens, UniProt Q01973) (Q01973 30-406 limits assumed): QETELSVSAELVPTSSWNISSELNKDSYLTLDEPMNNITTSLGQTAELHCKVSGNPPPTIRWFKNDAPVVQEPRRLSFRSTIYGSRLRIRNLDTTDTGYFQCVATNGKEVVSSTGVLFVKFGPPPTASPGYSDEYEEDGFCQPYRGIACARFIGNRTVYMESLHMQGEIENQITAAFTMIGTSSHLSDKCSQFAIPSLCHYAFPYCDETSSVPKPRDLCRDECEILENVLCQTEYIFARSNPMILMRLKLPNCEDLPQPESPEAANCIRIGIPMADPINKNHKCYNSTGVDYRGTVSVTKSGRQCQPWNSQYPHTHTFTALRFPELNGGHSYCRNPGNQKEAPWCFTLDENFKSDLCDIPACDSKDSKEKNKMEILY
# T2 sequence (Q01973 30-406): as the sequence (Q01973 30-406 limits assumed) above
# Chain of human ROR1 (on the cell surface) (human) (Q01973 30-937): as the sequence (Q01973 30-937) above
molecule,measurement,setting,value
B1,positive rate,[1],100%
B2,EC50,[2],0.21 nM
same,EC50,[3],0.21 nM
same,EC50,[4],0.31 nM
same,EC50,[5],0.2 nM
same,EC50,[6],0.36 nM
same,EC50,[7],0.16 nM
same,EC50,[8],1.07 nM
same,EC50,[9],0.46 nM
same,Kd,human ROR1 ECD protein [10],8.73 nM
same,koff,human ROR1 ECD protein [10],0.0112 s⁻¹
same,kon,human ROR1 ECD protein [10],1.26e+06 M⁻¹ s⁻¹
same,EC50,[11],0.06 nM
same,EC50,[12],0.14 nM
same,EC50,[13],0.37 nM
same,EC50,[14],0.3 nM
B3,fold stronger affinity (KD) than control antibody UC961,human ROR1 ECD protein [15],5.4 fold
B4,kdis,human ROR1 ECD protein [16],0.000863 s⁻¹
same,kon,human ROR1 ECD protein [16],538000 M⁻¹ s⁻¹
same,dissociation rate versus control antibody UC961 (as shown by the Kdis value),human ROR1 ECD protein [16]; versus UC961,significantly slower
B5,kdis,human ROR1 ECD protein [16],0.0153 s⁻¹
same,kon,human ROR1 ECD protein [16],586000 M⁻¹ s⁻¹
same,affinity versus control antibody UC961,human ROR1 ECD protein [16]; versus UC961,comparable
B6,kdis,human ROR1 ECD protein [16],0.00242 s⁻¹
same,kon,human ROR1 ECD protein [16],241000 M⁻¹ s⁻¹
same,affinity versus control antibody UC961,human ROR1 ECD protein [16]; versus UC961,comparable
